# Biological target: HIV envelope protein on HIV-infected cells (HIV)
# Assay: cell-based or functional assay
substance,measurement,value
anti-HIV chimeric antigen receptor comprising scFv derived from PGT128 (PGT128 CAR),"HIV-infected cells killed at 48 hours, against CARCD19 T-cells",56%

# — patent publication US20170044240A1
